The text below walks through data of US20120100207A1, “PROCESS FOR PRODUCING LIPOSOMES BY TWO-STEP EMULSIFICATION METHOD UTILIZING OUTER AQUEOUS PHASE CONTAINING SPECIFIC DISPERSING AGENT, PROCESS FOR PRODUCING LIPOSOME DISPERSION OR DRY POWDER THEREOF USING THE PROCESS FOR PRODUCING LIPOSOMES, AND LIPOSOME DISPERSION OR DRY POWDER THEREOF PRODUCED …” (KONICA MINOLTA HOLDINGS, INC., priority 2009, published 2012).

Data set [1] can be described thus: Volume mean particle diameter by dynamic light scattering particle size analyzer. The class given is physicochemical. The procedure:
The volume mean particle diameter of liposomes in the examplesandthecomparativeexamplesdescribedbelowwasmeasured by the following method.
The W1/O emulsion was diluted with a chloroform/hexane mixed solvent (volume ratio: 4/6, the specific gravity was made equal to that of the inner aqueous phase) to 10 times, then a particle size distribution was measured with a dynamic light scattering nanotrack particle size analyzer (UPA-EX150, manufactured by Nikkiso Co., Ltd.), and based on this particle size distribution, a volume mean particle diameter was calculated.
As for the volume mean particle diameter of the specific dispersing agent which forms molecular aggregates, a liposome dispersion (also referred to as a “suspension” hereinafter) prepared in each of the following examples was subjected to the measurement as it was, using the same device. That is to say, a suspension of liposome particles prepared was diluted with a phosphoric acid buffer saline solution (PBS) to 25 times, then a particle size distribution was measured using a dynamic light scattering nanotrack particle size analyzer (UPA-EX150, manufactured by Nikkiso Co., Ltd.), and based on this particle size distribution, a volume mean particle diameter was calculated.

For data set [2] the following is noted: in an aqueous solvent; background statement; cited from earlier work.

On to sodium caseinate, for which, in data set [1] (solution containing only casein having a higher concentration), the “particle size distribution of associated substance of molecular aggregates” value came out at 150 nm. The “main particle size distribution (volume mean particle diameter)” value in data set [1] (solution containing only the dispersing agent) is reported as 15 nm. In data set [2], the “volume mean particle diameter of molecular aggregates (submicelles)” value is given as “about 15 nm” and the “volume mean particle diameter of particles of associated molecular aggregates” value was 100 to 200 nm.
